B1: OAS1 (parent)
chain: LTVYAWERGSMKTHFNTAQGFRTV

Variants of: B1
Assay: protein stability index of a GFP-peptide fusion (GPS, HEK-293T) (PSI 1-6); higher = more stable
Conditions: c terminus: a fixed tail appended
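Note: lentivirally expressed fusions sorted by FACS into six bins by GFP to DsRed ratio, PSI derived from sequencing read proportions per bin multiplied by bin number.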

Variant	protein stability index
LTVYCWERGSMKTHFNTAQGFRTV	3.68
LTVYVWERGSMKTHFNTAQGFRTV	2.34
LTVYDWERGSMKTHFNTAQGFRTV	2.59
LTVYLWERGSMKTHFNTAQGFRTV	2.8
LTVYKWERGSMKTHFNTAQGFRTV	1.63
LTVYHWERGSMKTHFNTAQGFRTV	1.69
LTVYQWERGSMKTHFNTAQGFRTV	1.54
LTVYPWERGSMKTHFNTAQGFRTV	2.19
LTVYMWERGSMKTHFNTAQGFRTV	2.06
LTVYGWERGSMKTHFNTAQGFRTV	2.14
LTVYEWERGSMKTHFNTAQGFRTV	2.46
LTVYNWERGSMKTHFNTAQGFRTV	2.29
LTVYTWERGSMKTHFNTAQGFRTV	2.75
LTVYYWERGSMKTHFNTAQGFRTV	3.25
LTVYSWERGSMKTHFNTAQGFRTV	1.91
LTVYRWERGSMKTHFNTAQGFRTV	2.9
LTVWAWERGSMKTHFNTAQGFRTV	1.19
LTVPAWERGSMKTHFNTAQGFRTV	2.31
LTVGAWERGSMKTHFNTAQGFRTV	2.76
LTVIAWERGSMKTHFNTAQGFRTV	3.51
LTVTAWERGSMKTHFNTAQGFRTV	1.59
LTVMAWERGSMKTHFNTAQGFRTV	1.51
LTVRAWERGSMKTHFNTAQGFRTV	1.77
LTVAAWERGSMKTHFNTAQGFRTV	2.01

Variant	protein stability index
LTVSAWERGSMKTHFNTAQGFRTV	1.83
LTVEAWERGSMKTHFNTAQGFRTV	1.97
LTVDAWERGSMKTHFNTAQGFRTV	2.09
LTVCAWERGSMKTHFNTAQGFRTV	1.38
LTVQAWERGSMKTHFNTAQGFRTV	1.86
LTVNAWERGSMKTHFNTAQGFRTV	1.94
LTVKAWERGSMKTHFNTAQGFRTV	2.16
LTVFAWERGSMKTHFNTAQGFRTV	2.96
LTVLAWERGSMKTHFNTAQGFRTV	2.55
LTVHAWERGSMKTHFNTAQGFRTV	1.66
LTVYAWERGDMKTHFNTAQGFRTV	1.75
LTVYAWERGNMKTHFNTAQGFRTV	2.53
LTVYAWERGQMKTHFNTAQGFRTV	1.99
LTVYAWERGRMKTHFNTAQGFRTV	2.08
LTVYAWERGYMKTHFNTAQGFRTV	3.69
LTVYAWERGGMKTHFNTAQGFRTV	2.28
LTVYAWERGCMKTHFNTAQGFRTV	2.82
LTVYAWERGLMKTHFNTAQGFRTV	2
LTVYAWERGEMKTHFNTAQGFRTV	3.28
LTVYAWERGVMKTHFNTAQGFRTV	2.62
LTVYAWERGIMKTHFNTAQGFRTV	1.91
LTVYAWERGHMKTHFNTAQGFRTV	2.71
LTVYAWERGMMKTHFNTAQGFRTV	2.46
LTVYAWERGAMKTHFNTAQGFRTV	2.05

Variant	protein stability index
LTVYAWERGPMKTHFNTAQGFRTV	1.54
LTVYAWERGFMKTHFNTAQGFRTV	2.93
LYVYAWERGSMKTHFNTAQGFRTV	2.45
LQVYAWERGSMKTHFNTAQGFRTV	1.86
LWVYAWERGSMKTHFNTAQGFRTV	2.55
LVVYAWERGSMKTHFNTAQGFRTV	2.23
LGVYAWERGSMKTHFNTAQGFRTV	1.25
LEVYAWERGSMKTHFNTAQGFRTV	1.91
LCVYAWERGSMKTHFNTAQGFRTV	1.6
LRVYAWERGSMKTHFNTAQGFRTV	2.04
LLVYAWERGSMKTHFNTAQGFRTV	2.7
LMVYAWERGSMKTHFNTAQGFRTV	1.69
LPVYAWERGSMKTHFNTAQGFRTV	1.93
LIVYAWERGSMKTHFNTAQGFRTV	2.45
LHVYAWERGSMKTHFNTAQGFRTV	2.11
LNVYAWERGSMKTHFNTAQGFRTV	1.84
LAVYAWERGSMKTHFNTAQGFRTV	2.03
LKVYAWERGSMKTHFNTAQGFRTV	2.87
LFVYAWERGSMKTHFNTAQGFRTV	3.19
LSVYAWERGSMKTHFNTAQGFRTV	2.21
LDVYAWERGSMKTHFNTAQGFRTV	1.8
LTPYAWERGSMKTHFNTAQGFRTV	1.77
LTHYAWERGSMKTHFNTAQGFRTV	2.36
LTAYAWERGSMKTHFNTAQGFRTV	2.24

Variant	protein stability index
LTRYAWERGSMKTHFNTAQGFRTV	2.46
LTQYAWERGSMKTHFNTAQGFRTV	2.09
LTNYAWERGSMKTHFNTAQGFRTV	2.05
LTEYAWERGSMKTHFNTAQGFRTV	2.09
LTLYAWERGSMKTHFNTAQGFRTV	2.49
LTKYAWERGSMKTHFNTAQGFRTV	2.12
LTFYAWERGSMKTHFNTAQGFRTV	3.04
LTMYAWERGSMKTHFNTAQGFRTV	2.16
LTIYAWERGSMKTHFNTAQGFRTV	3.14
LTTYAWERGSMKTHFNTAQGFRTV	1.96
LTWYAWERGSMKTHFNTAQGFRTV	2.92
LTSYAWERGSMKTHFNTAQGFRTV	2.12
LTGYAWERGSMKTHFNTAQGFRTV	1.91
LTDYAWERGSMKTHFNTAQGFRTV	2.57
LTCYAWERGSMKTHFNTAQGFRTV	2.02
LTYYAWERGSMKTHFNTAQGFRTV	2.7
LTVYAWERSSMKTHFNTAQGFRTV	2.49
LTVYAWERWSMKTHFNTAQGFRTV	2.69
LTVYAWERNSMKTHFNTAQGFRTV	2.48
LTVYAWERRSMKTHFNTAQGFRTV	2.02
LTVYAWERFSMKTHFNTAQGFRTV	3.19
LTVYAWERLSMKTHFNTAQGFRTV	2.91
LTVYAWERYSMKTHFNTAQGFRTV	2.93
LTVYAWERTSMKTHFNTAQGFRTV	2.55

Variant	protein stability index
LTVYAWERESMKTHFNTAQGFRTV	2.7
LTVYAWERCSMKTHFNTAQGFRTV	3.73
LTVYAWERKSMKTHFNTAQGFRTV	1.8
LTVYAWERISMKTHFNTAQGFRTV	1.86
LTVYAWERPSMKTHFNTAQGFRTV	3.81
LTVYAWERHSMKTHFNTAQGFRTV	1.61
LTVYAWERMSMKTHFNTAQGFRTV	2.85
LTVYAWERQSMKTHFNTAQGFRTV	1.87
LTVYAWERDSMKTHFNTAQGFRTV	2.6
RTVYAWERGSMKTHFNTAQGFRTV	2.28
WTVYAWERGSMKTHFNTAQGFRTV	2.79
STVYAWERGSMKTHFNTAQGFRTV	2.1
NTVYAWERGSMKTHFNTAQGFRTV	2
PTVYAWERGSMKTHFNTAQGFRTV	2.14
MTVYAWERGSMKTHFNTAQGFRTV	2.57
QTVYAWERGSMKTHFNTAQGFRTV	1.79
ITVYAWERGSMKTHFNTAQGFRTV	1.71
TTVYAWERGSMKTHFNTAQGFRTV	2.09
VTVYAWERGSMKTHFNTAQGFRTV	1.5
KTVYAWERGSMKTHFNTAQGFRTV	2.17
HTVYAWERGSMKTHFNTAQGFRTV	2.13
YTVYAWERGSMKTHFNTAQGFRTV	2.19
LTVYAWEAGSMKTHFNTAQGFRTV	2.38
LTVYAWEIGSMKTHFNTAQGFRTV	2.15

Variant	protein stability index
LTVYAWECGSMKTHFNTAQGFRTV	1.85
LTVYAWEFGSMKTHFNTAQGFRTV	2.26
LTVYAWEVGSMKTHFNTAQGFRTV	2.77
LTVYAWEMGSMKTHFNTAQGFRTV	2.73
LTVYAWEWGSMKTHFNTAQGFRTV	2.69
LTVYAWEKGSMKTHFNTAQGFRTV	1.53
LTVYAWEHGSMKTHFNTAQGFRTV	2.13
LTVYAWEGGSMKTHFNTAQGFRTV	2.33
LTVYAWETGSMKTHFNTAQGFRTV	3.1
LTVYAWENGSMKTHFNTAQGFRTV	2.65
LTVYAWEPGSMKTHFNTAQGFRTV	4.46
LTVYAWEEGSMKTHFNTAQGFRTV	2.4
LTVYAWESGSMKTHFNTAQGFRTV	2.55
LTVYAWEQGSMKTHFNTAQGFRTV	2.56
LTVYAWEYGSMKTHFNTAQGFRTV	3.38
LTVYAWEDGSMKTHFNTAQGFRTV	2.89
LTVYAWELGSMKTHFNTAQGFRTV	3.07
LTVYAWKRGSMKTHFNTAQGFRTV	2.28
LTVYAWRRGSMKTHFNTAQGFRTV	2.05
LTVYAWQRGSMKTHFNTAQGFRTV	3.28
LTVYAWDRGSMKTHFNTAQGFRTV	2.14
LTVYAWWRGSMKTHFNTAQGFRTV	1.98
LTVYAWGRGSMKTHFNTAQGFRTV	2.18
LTVYAWPRGSMKTHFNTAQGFRTV	2.46

Variant	protein stability index
LTVYAWHRGSMKTHFNTAQGFRTV	2.41
LTVYAWLRGSMKTHFNTAQGFRTV	3.71
LTVYAWYRGSMKTHFNTAQGFRTV	1.92
LTVYAWCRGSMKTHFNTAQGFRTV	3.64
LTVYAWFRGSMKTHFNTAQGFRTV	2.85
LTVYAWNRGSMKTHFNTAQGFRTV	1.99
LTVYAWTRGSMKTHFNTAQGFRTV	3.32
LTVYAWSRGSMKTHFNTAQGFRTV	2.76
LTVYAWIRGSMKTHFNTAQGFRTV	2.63
LTVYAWMRGSMKTHFNTAQGFRTV	3.48
LTVYAWARGSMKTHFNTAQGFRTV	3.15
LTVYAWVRGSMKTHFNTAQGFRTV	3.45
LTVYAPERGSMKTHFNTAQGFRTV	1.69
LTVYAKERGSMKTHFNTAQGFRTV	1.53
LTVYACERGSMKTHFNTAQGFRTV	1.61
LTVYASERGSMKTHFNTAQGFRTV	1.59
LTVYAEERGSMKTHFNTAQGFRTV	2.23
LTVYAAERGSMKTHFNTAQGFRTV	1.86
LTVYANERGSMKTHFNTAQGFRTV	2.06
LTVYAMERGSMKTHFNTAQGFRTV	3.17
LTVYAQERGSMKTHFNTAQGFRTV	1.66
LTVYADERGSMKTHFNTAQGFRTV	1.87
LTVYAYERGSMKTHFNTAQGFRTV	1.9
LTVYARERGSMKTHFNTAQGFRTV	1.44

Variant	protein stability index
LTVYAFERGSMKTHFNTAQGFRTV	2.89
LTVYAHERGSMKTHFNTAQGFRTV	2.2
LTVYATERGSMKTHFNTAQGFRTV	2.45
LTVYAIERGSMKTHFNTAQGFRTV	2.41
LTVYALERGSMKTHFNTAQGFRTV	2.63
LTVYAGERGSMKTHFNTAQGFRTV	1.73
LTVYAVERGSMKTHFNTAQGFRTV	2.29
LTVYAWERGSIKTHFNTAQGFRTV	1.97
LTVYAWERGSKKTHFNTAQGFRTV	2.38
LTVYAWERGSGKTHFNTAQGFRTV	3.37
LTVYAWERGSHKTHFNTAQGFRTV	2.31
LTVYAWERGSCKTHFNTAQGFRTV	3.65
LTVYAWERGSDKTHFNTAQGFRTV	2.21
LTVYAWERGSFKTHFNTAQGFRTV	2.49
LTVYAWERGSPKTHFNTAQGFRTV	1.85
LTVYAWERGSAKTHFNTAQGFRTV	1.75
LTVYAWERGSLKTHFNTAQGFRTV	1.51
LTVYAWERGSQKTHFNTAQGFRTV	2.14
LTVYAWERGSNKTHFNTAQGFRTV	2.06
LTVYAWERGSEKTHFNTAQGFRTV	2.27

Reference: the supplement of paper PMC10567573
